# Laboratory results from the supplement of paper PMC12042874.
# ± gives the uncertainty stated by the source.
# Experiment: amyloid nucleation score (Sup35N fusion, yeast selection) (log enrichment); library NNK1; higher = more nucleation; inactive = no reads after selection
# Outline: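 The nucleation score equals the log enrichment of output over input reads from DiMSum, centred on the mode score of non-aggregating sequences. It was computed only for sequences with 100 or more input reads. The reads came from Illumina sequencing of plasmid inserts from psi-negative yeast expressing Sup35N fused to peptides of 20 random codons, induced with 100 μM copper sulfate for 24 hours and grown 7 days at 30°C without adenine and uracil.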
row,Substance,amyloid nucleation score
1,SSFRYVCCASRCRETSELLG,0.142 ± 0.5
2,SSGDVPGFSPYGKWDFWWTC,-0.151 ± 0.45
3,SSGFTLTSVRMGEMSTANNG,1.1 ± 0.66
4,SSIGVVKGCIVLWLSMWNQR,4.32 ± 0.066
5,SSKIRLFRDNTQYNGRWGSY,inactive
6,SSMLSSNRRSALWKQDVSKG,0.734 ± 1.1
7,SSMYDSCSLRCLGQVVR,0.711 ± 0.19
8,SSNYMFVCRSKDLEVLLVGY,0.398 ± 0.51
9,SSPPDNTKSKATLKALE,-1.5 ± 2.4
10,SSPWRYSDATFCTAGGEGKS,-0.465 ± 0.62
11,SSQDYAHSIAGLVYGC,-0.137 ± 0.98
12,SSRSGPPCACRTRKLACGMM,0.145 ± 0.47
13,SSSFPVMVYTHDAANCHRML,-0.763 ± 0.41
14,SSSYDY,-0.545 ± 0.28
15,SSTKG,0.956 ± 0.72
16,SSVLATFIKLQHQGRKRKDR,-0.198 ± 0.29
17,SSVRLDKNN,-0.315 ± 0.52
18,SSVVL,0.531 ± 0.44
19,SSYAHAVRTQDFKLASGHYV,-0.7 ± 0.88
20,SSYSRCTFKAFKLGSVRVQV,0.924 ± 0.7
21,STCSGISFVCHSTIIIKVTF,3.92 ± 0.12
22,STCSPKELQFMSYVCWVKFC,3.32 ± 0.11
23,STEVGYSFCHGGMSRTVCMC,1.45 ± 0.68
24,STMRLPWPGFRVHSL,0.901 ± 0.65
25,STRMVYR,-0.261 ± 0.95

row,Substance,amyloid nucleation score
1,STSDMLVDSRQIVGEYTSDL,-1.3 ± 1.7
2,STVWLSVGALAFARASGRRA,3.74 ± 0.12
3,STWFSFTFLWLMSRGVNQNF,1.56 ± 0.36
4,SVFGWR,1.32 ± 0.81
5,SVFWDLTSDWAKIGVKK,-1.03 ± 0.89
6,SVGEDSSFRRDSKINEGDCD,0.968 ± 0.85
7,SVIRVLWKGYGTRN,-1.55 ± 1.4
8,SVLIVLMHGMGYQQKTYCRF,0.316 ± 0.48
9,SVLLEGFLSYPDLSTNLIHV,-0.416 ± 0.81
10,SVLLKWMSYTKH,2.66 ± 0.15
11,SVLLRFYFTRNCGFFGRSTV,0.7 ± 0.97
12,SVLNSDCNCGIKSWFTDIIM,1.96 ± 0.4
13,SVLVLSRYFWNKLMRRWLVA,-0.002 ± 1.2
14,SVLWRGIFCFWIAWFV,-1.39 ± 2.4
15,SVNAYTSRTGRWMVMNSLVS,-0.186 ± 1.9
16,SVNHCHCL,0.597 ± 0.3
17,SVPSVDAIMVGTWCYRCW,-0.28 ± 0.68
18,SVRFSIETISWRGAYNRGTR,1.98 ± 0.22
19,SVSACPRVPMCIYGYLCWCH,-0.311 ± 0.3
20,SVTALKLDSSLQKSRDLVGG,-0.233 ± 1.1
21,SVWCSFFVNAADHNIYRTIT,1.11 ± 0.15
22,SWAIRALKFVWIA,-0.323 ± 0.93
23,SWFHGLEGVLSHATMSLGFA,0.1 ± 0.48
24,SWFYDGCSRPWRGIGDRRVC,-0.812 ± 0.91
25,SWGQTLTMNNP,-0.273 ± 0.38

row,Substance,amyloid nucleation score
1,SWISCASGFFYFWAIF,-0.739 ± 0.77
2,SWKPVLSREDFWTNHKGRPM,0.565 ± 0.45
3,SWLWSCSCLRVAMLTT,inactive
4,SWNMSFVWFHGCITWRQKGF,0.408 ± 0.4
5,SYAIPMVAIFQVEGHLGHPG,-0.211 ± 1.2
6,SYCMLNAVPVEMRLTLPGIR,0.389 ± 0.49
7,SYDNLRSRREGPEVVGRRAP,0.569 ± 0.74
8,SYEMWLEHYMRRQQRRP,-0.282 ± 1.7
9,SYGNVWYIMYHRLKDTGWYM,1.4 ± 0.43
10,SYHRSSYYGLVNRMAFLVF,2.94 ± 0.11
11,SYIALIELFLFDSRRGHESV,0.078 ± 0.35
12,SYIPSISAALYFVLVMRHWL,-0.627 ± 0.49
13,SYIQLMSMMIFAHMTANRRN,1.9 ± 0.42
14,SYLDLRLAVCHCNGA,5.38 ± 0.055
15,SYLFRSRRIRYFRFMHN,3.17 ± 0.12
16,SYLTWDHLEVNLCTYSILGR,0.45 ± 0.52
17,SYNGCRRFNRCDRVCRNSNT,2.35 ± 0.095
18,SYQCGENYMFAYVNWSVGGN,0.548 ± 0.84
19,SYRGWADADNLVLYPQNASV,0.021 ± 0.97
20,SYSIASVFWSSMSNGLGR,0.886 ± 0.2
21,SYSINLPLLPRCN,1.02 ± 0.57
22,SYSMQRRKCTPAFCFA,-0.36 ± 0.54
23,SYWLWTVNTMSLVPFRASCR,1.05 ± 0.36
24,TAGATI,0.108 ± 0.25
25,TAIRWHFGNFVIDNIRNRGI,1.25 ± 0.19

row,Substance,amyloid nucleation score
1,TALSFRYVYLI,-0.612 ± 0.61
2,TASIWNSRFFHNAGSLSGPF,-0.3 ± 1.1
3,TAWGHV,0.411 ± 0.73
4,TCAGDNHDCDIYRNLLVAFS,1.19 ± 0.68
5,TCCDRSRCSESSEGRRFQRT,0.162 ± 0.3
6,TCLKFDSPMNCKGLSSLDMM,-0.496 ± 0.38
7,TCNGCGGHRMFWYK,0.099 ± 0.55
8,TCNQS,inactive
9,TCWHVSILN,0.136 ± 0.24
10,TDGIGYLGTWMWLWRGDGVR,1.78 ± 0.53
11,TDRTQTYSTFASRGSDVTVT,0.185 ± 0.35
12,TEALYWRLYMGQNKILSCRG,0.366 ± 0.61
13,TEFHAKGPTWCELSYSFAIL,-0.195 ± 0.58
14,TEINIASPYWNNSRSGSDMD,0.238 ± 0.42
15,TFIITSRFLYSDVAT,-1.33 ± 0.45
16,TFIMSQSWFMQWPRTMAAMT,-0.346 ± 0.45
17,TFLGGAPVGKIFTLIWLGRG,0.52 ± 0.93
18,TFLITRMCYSTVQKKEVVFW,-0.189 ± 1.2
19,TFLSL,0.068 ± 0.24
20,TFRCKSCDLLYHRLENWSDW,2.66 ± 0.12
21,TFSDSLKNLQVMVHYSWVVG,0.224 ± 1.4
22,TFSEFAVIDIRYIWGTLFVS,0.762 ± 0.38
23,TFTFNACELCVPGLMCKEWN,3.94 ± 0.096
24,TFVCAFRGY,2.19 ± 0.098
25,TFYLEYLVLFGDCDADSFSW,-0.361 ± 0.63

row,Substance,amyloid nucleation score
1,TGATFMMRGVNLCEGSKSGN,-0.198 ± 0.5
2,TGDIISRSLSASIEQNFSSN,0.443 ± 0.2
3,TGFTSLGGYLKVFNIICWIH,3.39 ± 0.097
4,TGFVWWLFGCGWTLVDRMWF,-0.79 ± 0.69
5,TGICLWLPAVVDAEES,-0.34 ± 0.35
6,TGKGSSEHLRSNMNHRLYCA,0.85 ± 0.43
7,TGLDNHNICNRDTR,-0.034 ± 0.62
8,TGLWPMEYSCQCDVVYPVSY,-0.051 ± 0.76
9,TGRSTSTG,inactive
10,TGWQCYSRANVVD,-0.98 ± 0.51
11,THFRMGKSFVICLGLASYPL,0.374 ± 0.9
12,THGGCCQGFQPTQLQSLTHQ,0.367 ± 0.6
13,THHSTSVSGVDQW,0.289 ± 0.52
14,THNFEGLSVWDLKDLKCCS,5.16 ± 0.087
15,THSIFFVQLRFPFMLTTS,-0.269 ± 0.78
16,TIAKST,-0.885 ± 0.86
17,TIDERDSAHKSSVFKGLKEI,-0.447 ± 0.33
18,TIIFYVFQCSMLRFIQMV,inactive
19,TIILSRLVEGVMQWAFMRAF,inactive
20,TINDKMITRFSLLCPAVSMI,1.21 ± 0.84
21,TISCSSYDMWWCFTEAKSTM,inactive
22,TKCGMGYISGISSPASGQYG,0.767 ± 1
23,TKFKIAYTCYFNMFHRRLCI,-0.374 ± 0.38
24,TKLSPFNIGLRCRYHNLALN,-1.52 ± 0.45
25,TKNSRTRLASSSLIWNW,-1.45 ± 0.76

row,Substance,amyloid nucleation score
1,TKSMEPSGR,0.046 ± 0.52
2,TKTLL,0.346 ± 0.34
3,TKVKCSLLSFWEKKFLLLRL,1.82 ± 0.34
4,TLAIESGRFWINRLWYVEGE,-1.55 ± 1.3
5,TLCERGPPMMYCKC,-0.526 ± 0.45
6,TLFLLVSNVIAEFLFWIVCP,0.212 ± 0.3
7,TLGFKIVDGIRGNMLVGPGI,-0.081 ± 0.73
8,TLILVTLMASIRNDTRTSWS,0.979 ± 0.54
9,TLIRGIIISRWRRVRNIDE,-0.216 ± 0.3
10,TLLYICSRNTKFNGLMWLGL,0.935 ± 0.21
11,TLMDQSLYIWGSN,-0.274 ± 0.63
12,TLNDYYCFMLCGAVNG,0.071 ± 0.63
13,TLNLWSAWLLFPYDLAGIFY,-0.199 ± 0.33
14,TLQLCLSSCWYKGRRVGLEC,0.483 ± 0.3
15,TLQLICYY,3.29 ± 0.14
16,TLRLKWSWEADCDI,2.49 ± 0.12
17,TLRWGNYKLLQIVYITVWRD,0.541 ± 0.28
18,TLSFIRAYSVPHQVLRMESL,0.87 ± 0.64
19,TLSLNGLNP,inactive
20,TLSLNYRFNLKERFLVSGLI,-0.733 ± 0.38
21,TLTPTILILFNFIT,4.68 ± 0.052
22,TLTVSGAADIITFGSTIVVG,0.193 ± 1.5
23,TLVKLVVTIGLDIKDCGFVI,0.018 ± 0.18
24,TLVYY,0.296 ± 0.47
25,TLWTWTSYRVVLYSSSVKLG,-0.451 ± 0.32

row,Substance,amyloid nucleation score
1,TLYLPGLKPTRHECMDLHQG,inactive
2,TMRLNQCPLNSFPTLFLYER,-0.602 ± 0.31
3,TMVFCRI,0.23 ± 0.79
4,TMYTVVPNHWNNISFRALSR,-0.909 ± 0.74
5,TNCGITFVFTPIPRATTWSN,5.37 ± 0.083
6,TNELCMYCLGHLGY,0.694 ± 0.84
7,TNFANHRLGDPIMYSFHKGV,-0.74 ± 0.37
8,TNGWTQHKYKYRSFSGHFII,inactive
9,TNHDMAINLVQQLDC,1.67 ± 0.61
10,TNIFMSFKFLISSLRCFPER,4.68 ± 0.12
11,TNILVAYRVISNGSTTPPRR,3.56 ± 0.15
12,TNRKIQSLPTVCVCIRGSSG,2.95 ± 0.11
13,TNSKSSSVGSKATQHN,0.077 ± 0.35
14,TNTLLTPGCGINAIGVALYV,-0.628 ± 0.3
15,TNTSHVLTLESCSCRERVSR,0.969 ± 0.55
16,TPDHLWLWLFYLNCNTENYG,7.757 ± 0.046
17,TPSLAEADCL,-0.909 ± 2.7
18,TQCCGS,-0.448 ± 1.7
19,TQCSFAANQF,0.768 ± 0.39
